# Assay results reported in US20100075326A1.
# Where two headings read alike, the source gives them in different places.
# How the values were obtained:
# [1] = molecular target: the wild-type and HA I domain; test: predicted from YS2H (flow cytometry of Myc and FLAG tags, Langmuir equation)
# [2] = molecular target: high affinity (HA) LFA-1 I domain K287C/K294C, YS2H bait fused to Aga2 with C-terminal FLAG tag (yeast) (UniProt P20701); test: YS2H: I domain bait on the yeast surface (Aga2 fusion, Flag tag), secreted scFv prey with Myc tag; flow cytometry, mean ± standard error of three measurements; paragraph 71 says goat polyclonal anti-murine antibody was the primary antibody for detecting TS1/22; Flag (bait) MFI 44±2
# [3] = molecular target: wild-type LFA-1 I domain, YS2H bait fused to Aga2 with C-terminal FLAG tag (yeast) (UniProt P20701); test: YS2H: I domain bait on the yeast surface (Aga2 fusion, Flag tag), secreted scFv prey with Myc tag; flow cytometry, mean ± standard error of three measurements; paragraph 71 says goat polyclonal anti-murine antibody was the primary antibody for detecting TS1/22; Flag (bait) MFI 40±0.3
# [4] = molecular target: LFA-1 I domain F265S, soluble, refolded from E. coli (UniProt P20701); test: SPR (Biacore), I domain injected over scFv AL-57 chip, 10 mM MgCl2
# [5] = molecular target: LFA-1 I domain L295P, soluble, refolded from E. coli (UniProt P20701); test: as above
# [6] = molecular target: high affinity (HA) LFA-1 I domain K287C/K294C, soluble, refolded from E. coli (UniProt P20701); test: as above
# [7] = molecular target: LFA-1 I domain F265S, YS2H bait fused to Aga2 with C-terminal FLAG tag (yeast) (UniProt P20701); test: predicted from YS2H (flow cytometry of Myc and FLAG tags, Langmuir equation)
# [8] = molecular target: LFA-1 I domain L295P, YS2H bait fused to Aga2 with C-terminal FLAG tag (yeast) (UniProt P20701); test: as above
# [9] = molecular target: high affinity (HA) LFA-1 I domain K287C/K294C, YS2H bait fused to Aga2 with C-terminal FLAG tag (yeast) (UniProt P20701); test: as above
# [10] = molecular target: LFA-1 I domain F265S, YS2H bait fused to Aga2 with C-terminal FLAG tag (yeast) (UniProt P20701); test: as above; remark: listed apart in the source
# [11] = molecular target: LFA-1 I domain L295P, YS2H bait fused to Aga2 with C-terminal FLAG tag (yeast) (UniProt P20701); test: YS2H as in the row 'Myc', but labelled without metal ions with 10 mM EDTA (row 'Myc+ EDTA'); Flag (bait) MFI 40±2
# [12] = molecular target: LFA-1 I domain F265S, YS2H bait fused to Aga2 with C-terminal FLAG tag (yeast) (UniProt P20701); test: YS2H as in the row 'Myc', but labelled without metal ions with 10 mM EDTA (row 'Myc+ EDTA'); Flag (bait) MFI 52±8
# [13] = molecular target: wild-type LFA-1 I domain, YS2H bait fused to Aga2 with C-terminal FLAG tag (yeast) (UniProt P20701); test: YS2H: I domain bait on the yeast surface (Aga2 fusion, Flag tag), secreted scFv prey with Myc tag; flow cytometry with anti-Myc antibody, mean ± standard error of three measurements; Flag (bait) MFI 79±1
# [14] = molecular target: high affinity (HA) LFA-1 I domain K287C/K294C, YS2H bait fused to Aga2 with C-terminal FLAG tag (yeast) (UniProt P20701); test: YS2H: I domain bait on the yeast surface (Aga2 fusion, Flag tag), secreted scFv prey with Myc tag; flow cytometry with anti-Myc antibody, mean ± standard error of three measurements; Flag (bait) MFI 85±7
# [15] = molecular target: LFA-1 I domain L295P, YS2H bait fused to Aga2 with C-terminal FLAG tag (yeast) (UniProt P20701); test: YS2H: I domain mutant bait on the yeast surface, secreted scFv AL-57 prey with Myc tag; flow cytometry with anti-Myc antibody, 10 mM MgCl2, mean ± standard error of three measurements; Flag (bait) MFI 40±2
# [16] = molecular target: LFA-1 I domain F265S, YS2H bait fused to Aga2 with C-terminal FLAG tag (yeast) (UniProt P20701); test: YS2H: I domain mutant bait on the yeast surface, secreted scFv AL-57 prey with Myc tag; flow cytometry with anti-Myc antibody, 10 mM MgCl2, mean ± standard error of three measurements; Flag (bait) MFI 52±8
substance,measurement,setting,value
"scFv TS1/22, secreted YS2H prey with C-terminal Myc tag",Kd,[1],148 to 237 nM
same,MFI (row 'Myc'),[2],40
same,MFI (row 'Myc'),[3],38
"scFv AL-57, soluble, refolded from E. coli",Kd,[4],15.7 nM
same,Kd,[5],243 nM
same,Kd,[6],32.6 nM
"scFv AL-57, secreted YS2H prey with C-terminal Myc tag",Kd,[7],237 nM
same,Kd,[8],440 nM
same,Kd,[9],151 nM
same,Kd,[10],148 to 237 nM
same,"MFI (anti-Myc, with EDTA)",[11],10
same,"MFI (anti-Myc, with EDTA)",[12],15
same,MFI (anti-Myc),[13],12
same,MFI (anti-Myc),[14],80
same,MFI (anti-Myc),[15],13
same,MFI (anti-Myc),[16],32
